First the molecules themselves.
T1: human complement C2 (human, UniProt P06681 21-752)
T1 construct: Recombinant full-length human C2 with C-terminal 8x His tag, purified from Expi293F supernatant; also called human C2; huC2
T1 sequence: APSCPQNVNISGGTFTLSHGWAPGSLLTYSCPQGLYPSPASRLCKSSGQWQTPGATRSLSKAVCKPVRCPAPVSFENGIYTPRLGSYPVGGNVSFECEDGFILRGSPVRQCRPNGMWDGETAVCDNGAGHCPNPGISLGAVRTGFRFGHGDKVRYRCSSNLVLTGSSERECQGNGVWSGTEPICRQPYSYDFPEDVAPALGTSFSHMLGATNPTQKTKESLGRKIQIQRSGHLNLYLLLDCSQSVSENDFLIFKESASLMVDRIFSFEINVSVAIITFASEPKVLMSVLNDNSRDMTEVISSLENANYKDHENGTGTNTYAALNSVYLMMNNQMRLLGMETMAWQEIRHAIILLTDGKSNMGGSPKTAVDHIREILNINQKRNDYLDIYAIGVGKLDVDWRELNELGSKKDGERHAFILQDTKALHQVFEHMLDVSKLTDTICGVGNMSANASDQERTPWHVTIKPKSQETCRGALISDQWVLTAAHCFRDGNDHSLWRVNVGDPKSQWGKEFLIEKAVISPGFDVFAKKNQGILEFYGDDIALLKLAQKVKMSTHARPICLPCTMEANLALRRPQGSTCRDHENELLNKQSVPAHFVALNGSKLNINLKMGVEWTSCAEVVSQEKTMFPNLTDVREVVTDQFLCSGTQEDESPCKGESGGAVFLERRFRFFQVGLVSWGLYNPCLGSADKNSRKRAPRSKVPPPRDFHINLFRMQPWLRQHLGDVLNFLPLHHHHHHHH

T2: cynomolgus monkey C2 (cynomolgus monkey, UniProt G8F3W0 21-752)
T2 sequence: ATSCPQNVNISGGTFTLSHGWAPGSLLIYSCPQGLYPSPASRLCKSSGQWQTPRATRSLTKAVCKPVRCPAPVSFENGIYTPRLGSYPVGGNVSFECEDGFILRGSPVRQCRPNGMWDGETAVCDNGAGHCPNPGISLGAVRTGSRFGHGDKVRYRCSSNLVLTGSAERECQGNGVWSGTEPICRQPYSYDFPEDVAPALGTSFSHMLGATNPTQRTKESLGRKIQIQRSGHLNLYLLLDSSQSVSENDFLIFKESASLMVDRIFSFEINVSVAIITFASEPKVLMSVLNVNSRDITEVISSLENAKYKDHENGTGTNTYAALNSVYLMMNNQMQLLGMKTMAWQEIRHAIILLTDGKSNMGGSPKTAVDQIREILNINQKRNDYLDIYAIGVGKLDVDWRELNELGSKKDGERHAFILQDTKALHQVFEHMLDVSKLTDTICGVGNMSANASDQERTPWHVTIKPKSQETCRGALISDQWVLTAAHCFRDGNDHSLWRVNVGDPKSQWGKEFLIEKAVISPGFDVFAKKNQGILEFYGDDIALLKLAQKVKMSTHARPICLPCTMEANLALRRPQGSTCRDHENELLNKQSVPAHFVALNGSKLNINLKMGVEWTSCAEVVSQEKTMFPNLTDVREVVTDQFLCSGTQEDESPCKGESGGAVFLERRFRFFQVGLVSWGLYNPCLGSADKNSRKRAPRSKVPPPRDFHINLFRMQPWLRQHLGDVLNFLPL

T3: mouse C2 (mouse, UniProt P21180 19-760, limits assumed)
T3 sequence (looked up): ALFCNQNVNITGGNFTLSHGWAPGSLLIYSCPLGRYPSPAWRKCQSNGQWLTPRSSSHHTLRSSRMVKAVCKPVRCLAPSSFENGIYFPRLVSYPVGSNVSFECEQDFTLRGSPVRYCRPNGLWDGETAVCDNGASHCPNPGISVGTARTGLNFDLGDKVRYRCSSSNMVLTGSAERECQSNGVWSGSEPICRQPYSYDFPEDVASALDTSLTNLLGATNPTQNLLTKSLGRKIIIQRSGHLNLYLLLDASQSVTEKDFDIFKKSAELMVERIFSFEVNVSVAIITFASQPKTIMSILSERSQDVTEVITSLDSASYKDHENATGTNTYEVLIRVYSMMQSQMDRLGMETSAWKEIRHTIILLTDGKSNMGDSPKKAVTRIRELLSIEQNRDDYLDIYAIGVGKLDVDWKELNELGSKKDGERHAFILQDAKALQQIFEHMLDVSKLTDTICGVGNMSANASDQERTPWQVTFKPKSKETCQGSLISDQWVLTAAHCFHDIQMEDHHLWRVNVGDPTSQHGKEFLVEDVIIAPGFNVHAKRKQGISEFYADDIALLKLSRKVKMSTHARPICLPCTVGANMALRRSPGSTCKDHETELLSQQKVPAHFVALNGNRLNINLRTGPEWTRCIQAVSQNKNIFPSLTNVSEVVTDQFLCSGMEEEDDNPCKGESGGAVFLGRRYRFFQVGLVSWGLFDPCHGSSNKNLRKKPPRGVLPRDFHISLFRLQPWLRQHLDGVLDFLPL

B1: RF16-242 (antibody, V domains shown)
VH: EVQLLQSGAEVKKPGESLKISCKGSGYSFTSYWIGWVRQMPGKGLEWMGIIYPGDSDTRYSPSFQGQVTISADKSISTAYLQWSSLKASDTAMYYCARRGHYGDYFDYWGQGTLVTVSS
VL: SYELTQPPSVSVSPGQTARITCSGDALPKKYAYWYHQKSGQAPVLVIYEDRRRPSEIPERFSGSSSGTMATLTITGAQVEDEGVYFCYSRDRAGNQRVFGGGTQLTVLG
B2: RF16-191G (antibody, V domains shown)
VH: EVQLLESGGGLVQPGGSLRLSCAASGFTFSKYWMGWVRQAPGKGLEWVSSIYSSGGWTYYADSVKGRFTISRDNSKNTLYLQMNSLRAEDTAVYYCARRPRSFSGSYYRAFDIWGQGTMVTVSS
VL: DIQMTQSPSSLSASVGDRVTITCRASQSITDYLNWYQQKPGKAPKLLIYAASSLQSGVPSRFSGSGSGTDFTLTISSLQPEDFATYYCQQSYSSSITFGQGTRLDLKR
B3: RF16-203G (antibody, V domains shown)
VH: EVQLLESGGGLVQPGGSLRLSCAASGFTFSRYYMMWVRQAPGKGLEWVSSIGSSGGTTNYADSVKGRFTISRDNSKNTLYLQMNSLRAEDTAVYYCAKGGMVLGVVNIWGQGTLVTVSS
VL: SYELTQPPSVSVSPGQTASITCSGDKLGEKYVSWYQQKPGQSPVLVIYQDIKRPSGIPERFSGSNSGNTATLTISGTQAMDEADYYCQTWGTGGIQVFGGGTKLTVLG
B4: RF16-214G (antibody, V domains shown)
VH: EVQLLESGGGLVQPGGSLRLSCAASGFTFSWYQMMWVRQAPGKGLEWVSRIYPSGGGTAYADSVKGRFTISRDNSKNTLYLQMNSLRAEDTAVYYCARDAGYGDNWGQGTLVTVSS
VL: SYELTQPPSVSVSPGQTASITCSGDKLGEKYASWYQQKPGQSPVLVIYQDRKRPSGIPERFSGSNSGNTATLTISGTQAMDEADYYCQAWDTRAVVFGGGTKLTVLG

Data on 4 molecules can be found in patent US20220332804A1 (CSL INNOVATION, published 2022).

For the first test, the target named is T1, human complement C2. The test can be described thus: SPR, mAb captured, C2 analyte, HBS-EP, pH 7.3. On the technique in general: In SPR one partner is held on a chip, and binding of the other changes the refractive index at the surface.
By Kd is commonly meant the concentration at which binding is half-saturated. The molecule B1 displayed a Kd of 7 nM.

For B2, the Kd came out at 18.9 nM.

Regarding B3, the Kd amounted to 506 nM.

For B4, the Kd was determined as 25.1 nM.

The next test deals with T1, human complement C2. Put plainly: SPR, mAb captured, C2 analyte, MHAs buffer, pH 5.8, steady state.
Description: (§1) Surface plasmon resonance (SPR, Biacore) was used for all binding affinity analyses. In brief, goat anti-human IgG was directly immobilised onto the carboxymethyl dextran surface of CM5 sensorchips to approximately 12,000 RU using standard NHS/EDC chemistry at pH 5. The immobilised antibody surface was pre-conditioned with ten injections of polyclonal human IgG (Privigen 60 s) prepared at 1 μg/mL. Ligands (anti-C2 mAbs) were captured at the beginning of each cycle as described below. An adjacent spot or flow cell in which only Polyclonal IgG was capture was used as a reference surface. The goat anti-human IgG Fc antibody surface was regenerate in 100 mM H3PO4, injected for 45 seconds at the end of each cycle. Experiments were performed at 37° C. and the flow rate of each experiment was kept constant at 30 μL/min.
(§2) This buffer contains ammonium sulfate instead of sodium chloride.
With B1, the Kd turned out to be 32 µM.

Regarding B4, the Kd turned out to be 3.34 µM.

The target in a further test is T2, cynomolgus monkey C2. The test can be described thus: cell-based or functional assay.
Regarding B1, the “IC50, inhibition of cynomolgus classical complement pathway (Wieslab assay)” value amounted to 8.97 nM and the “IC50, inhibition of cynomolgus lectin complement pathway (Wieslab assay)” value worked out at 91.1 nM.

In the case of B2, the “IC50, inhibition of cynomolgus classical complement pathway (Wieslab assay)” value came out at 8.73 nM and the “IC50, inhibition of cynomolgus lectin complement pathway (Wieslab assay)” value is 42.9 nM.

As for B3, the “IC50, inhibition of cynomolgus classical complement pathway (Wieslab assay)” value came out at 14100 nM and the “IC50, inhibition of cynomolgus lectin complement pathway (Wieslab assay)” value worked out at 5780 nM.

Turning to B4, the “IC50, inhibition of cynomolgus classical complement pathway (Wieslab assay)” value turned out to be 135 nM and the “IC50, inhibition of cynomolgus lectin complement pathway (Wieslab assay)” value came out at 223 nM.

A further test addresses T1, human complement C2. Put plainly: cell-based or functional assay.
In the case of B1, the “IC50, inhibition of human classical pathway (hemolysis assay)” value was determined as 55.4 nM.

On to B2, for which the “IC50, inhibition of human classical pathway (hemolysis assay)” value was found to be 94 nM.

With B4, the “IC50, inhibition of human classical pathway (hemolysis assay)” value stood at 337 nM.

Another test has as its target T2, cynomolgus monkey C2. Put plainly: cell-based or functional assay. The source holds these as a separate data set.
Take B1: the “IC50, inhibition of cyno classical pathway (hemolysis assay)” value was determined as 642 nM.

Regarding B2, the “IC50, inhibition of cyno classical pathway (hemolysis assay)” value was found to be 213 nM.

On to B4, for which the “IC50, inhibition of cyno classical pathway (hemolysis assay)” value is 396 nM.

Another test concerns the target T2, cynomolgus monkey C2. Put plainly: SPR, mAb captured, cyno C2 analyte, pH 7.3.
Description: as §1
(§3) In addition to human C2, the pH dependent anti-C2 antibodies were also tested for their ability to bind to C2 from other mammalian species using the SPR methods described above in order to identify suitable surrogate species for in vivo testing. The antibodies were tested for binding at neutral pH against C2 from cynomolgus monkeys, mice, dogs, rabbits, rats, pigs, and sheep.
The molecule B1 gave a Kd of 5.2 nM.

In turn, B2 came in with a Kd of 35.7 nM.

Regarding B3, the Kd was 485 nM.

B4 returned a Kd of 41.5 nM.

The next test addresses T1, human complement C2. The test can be described thus: SPR, mAb captured, C2 analyte, HBS-EP, pH 6.0.
Description: as §1
The pH dependent anti-C2 antibodies and their germlined versions were tested for their affinity to C2 at pH 7.3 (neutral pH) and pH 6.0 (early endosome pH) using the SPR methods described above in HBS-EP buffer.
The molecule B1 returned a Kd of 16 nM.

Molecule B2 returned an equilibrium dissociation constant (Kd) of 13 nM.

On to B4, for which the Kd came out at 53.9 nM.

Another test has as its target T1, human complement C2. Put plainly: cell-based or functional assay. This is another data set of the same source.
B1: the “IC50, inhibition of human classical complement pathway (Wieslab assay)” value was determined as 9.19 nM and the “IC50, inhibition of human lectin complement pathway (Wieslab assay)” value was determined as 2.91 nM.

With B2, the “IC50, inhibition of human classical complement pathway (Wieslab assay)” value was 1.64 nM and the “IC50, inhibition of human lectin complement pathway (Wieslab assay)” value is 1.62 nM.

For the molecule B3, the “IC50, inhibition of human classical complement pathway (Wieslab assay)” value turned out to be 2030 nM and the “IC50, inhibition of human lectin complement pathway (Wieslab assay)” value amounted to 33.2 nM.

For B4, the “IC50, inhibition of human classical complement pathway (Wieslab assay)” value came out at 20.3 nM and the “IC50, inhibition of human lectin complement pathway (Wieslab assay)” value amounted to 6.4 nM.

The target in a further test is T1, human complement C2. Put plainly: SPR, mAb captured, C2 analyte, MHAs buffer, pH 6.0, steady state.
Description: as §1, §2
In the case of B1, the Kd turned out to be 11.6 µM.

Molecule B4 had a dissociation constant Kd of 1.48 µM.

A further test has as its target T2, cynomolgus monkey C2. Put plainly: SPR, mAb captured, cyno C2 analyte, pH 6.0.
Description: as §1, §3
For the molecule B1, binding was characterised by a dissociation constant (Kd) of 134 nM.

Regarding B2, the Kd was determined as 87.3 nM.

The molecule B4 displayed a Kd of 111 nM.

Another test concerns the target T3, mouse C2. Put plainly: SPR, mouse C2, pH 7.3; VWB = very weak binding, KD not determined.
For B2, the binding result is “binds”.

Regarding B3, the binding result is listed as “binds”.

Take B4: the binding result was “binds”.

For the next test, the target named is T1, human complement C2. Put plainly: SPR, mAb captured, C2 analyte, MHAs buffer, pH 7.3.
Description: as §1, §2
In turn, B1 showed a Kd of 460 nM.

In turn, B4 showed a Kd of 176 nM.
